Measured values: US8540999B2, “Allergenic proteins and peptides from Japanese cedar pollen” (Merck Patent GmbH, priority 1991, dated 2013)

Experiments:
allergic patient IgE [1] = assay: Direct ELISA, IgE binding to rCry j I and Cry j I peptides (Example 8); set-up: species or system human; conditions: PHP (15 patients), FIG. 15
Protocol: The recombinant Cry j I protein (rCry j I), expressed in bacteria and then purified (as described in Example 5), has been examined for IgE reactivity. The first method applied to this examination was direct ELISA where wells were coated with the recombinant Cry j I and IgE binding was assayed on individual patients. FIG. 9 is the graphic representation of this direct ELISA.
To analyze IgE reactivity to selected Cry j I peptides a direct ELISA format was used. ELSIA wells were coated with 25 peptides derived from Cry j I and assayed for IgE binding. FIG. 15a and 15b are graphs of these binding results using PHP (15 patients) as the cedar pollen allergic IgE source. This pool of plasma was formulated for enrichment of IgE that could bind to denatured SPE (as determined by direct ELISA) and therefore increase the chance of reactivity toward the peptides.

[2] = system: Cry j allergic patient plasma IgE; assay: Cry j I peptide screen, direct ELISA for IgE binding (Example 12); set-up: species or system human; conditions: plasma pools PHP-A and PHP-D, FIGS. 22 and 23
From the text: To analyze IgE reactivity to the selected peptides discussed in example 11 and shown in FIG. 20, a direct ELISA format was used. ELISA wells were coated with the selected peptides derived from Cry j I and then assayed for IgE binding. FIGS. 22 and 23 are graphs of these binding results using two different pools of Cry j allergic patient plasma. Patient plasma pool A (denoted PHP-A) (FIG. 22) was formulated by mixing equal volumes of plasma from 22 patients that were all shown to be positive for direct IgE binding to native purified Cry j I by ELISA. The second pool (PHP-D) (FIG. 23) was formulated by the combination of equal plasma volumes from 8 patients that had IgE binding by direct ELISA to both native and denatured purified Cry j I. This pool was generated to increase the chance of detecting reactivity towards peptides. […] There was no detectable IgE binding reactivity to any of the peptides at any of the plasma concentrations used. To control for the presence of peptide coating the wells, mouse polyclonal antisera was generated to the peptides. […] The results of these assays are shown in FIG. 24, and indicate that peptides were coating the wells.

human basophil = assay: Histamine release assay; format: cell-based; conditions: one Japanese cedar pollen allergic patient, FIG. 11
Protocol: To determine whether a peptide which binds IgE results in the release of mediators, a histamine release assay can be performed using standard reagents and protocols obtained for example, from Amac, Inc. (Westbrook, Me.). Briefly, a buffered solution of a peptide to be tested is combined with an equal volume of whole heparinized blood from an allergic subject. After mixing and incubation, the cells are pelleted and the supernatants are processed an analyzed using a radioimmunoassay to determine the amount of histamine released.
A histamine release assay was performed on one Japanese cedar pollen allergic patient using Japanese cedar pollen SPE, purified native Cry j I and rCry j I as the added antigens. This assay is a measure of IgE reactivity through human basophil mediator release. […] Two possible explanations for this release by the rCry j I are: 1) specific reactivity with a very low proportion of the anti-Cry j I IgE capable of recognizing the recombinant form of Cry j I, or 2) non-specific release caused by low abundance of bacterial contaminants observed only at the highest antigen concentration. […] In addition, the data shown are from single data points at each protein concentration.

IgE antibodies = conditions: Sakaguchi (1990); cited from earlier work
patients' plasma IgE = assay: Direct binding assay of IgE to Cry j I, Cry j II and recombinant Cry j II (Example 18); set-up: species or system human
Protocol: Costar assay plates were coated with Cry j I or Cry j II at 2 μg/mL or recombinant Cry j II preparation at 10 μg/mL (approximately 20% pure) in a volume of 50 μL overnight at 4° C. The coating antigens were removed and the wells were blocked with 0.5% gelatin, PVP (polyvinyl pyrolidine) 1 mg/mL in PBS, 200 μL/well for 2 hours at room temperature. The anti-Cry j I monoclonal antibody, 4B11, was serially diluted in PBS-Tween 20 starting at a 1:1000 dilution. The human plasma were serially diluted in PBS-Tween at a starting dilution of 1:2. For this set 23 plasma samples from patients symptomatic for Japanese cedar pollen allergy chosen for IgE binding analysis. The first antibody incubation proceeded overnight at 4° C. Following three washes with PBS-Tween the second antibodies were added (biotinylated goat anti-mouse Ig or goat anti-human IgE both at 1:2000) and incubated for two hours at room temperature at 100 μL/well. After washing 3 times, […]. This solution was removed and streptavidin-HRPO diluted to 1:10,000, was added at 100 μL/well. The color was allowed to develop for 2-5 minutes. The reaction was stopped by the addition of 100 μL/well of 1M phosphoric acid. Plates were read on a Microplate IL310 Autoreader (Biotek Instruments, Winooski, Vt.) with a 450 nm filter. The absorbance levels of duplicate wells were averaged. A positive binding result, indicated by a plus sign is determined to be a reading of two-fold or greater above background (no first antibody) at the second dilution of plasma ([…]).

allergic patient IgE [3] = assay: Allergic sera titration of purified subfractions of Cry j I (FIG. 3); format: binding, human; conditions: pool of fifteen allergic patient plasma
From the text: In summary, three Cry j I isoforms of different molecular weight were purified from pollen extract. The molecular weights estimated by SDS-PAGE ranged from 40-35 kD under both reducing and non-reducing conditions. The isoelectric point of these isoforms is approximately 9.5-8.6, with an average pI of 9.0. The N-terminal 20 amino acid sequence was the same in these 3 bands and was identical to previously published Cry j I sequence (Taniai et al, supra). The 3 isoforms are all recognized by monoclonal antibody CBF2 as shown in the allergic sera titration of different purified subfractions of Cry j I using a pool of fifteen allergic patient plasma. […] The difference in molecular weight and isoelectric point in these isoforms might in part be due to post-translational modification, e.g. glycosylation, phosphorylation or lipid content. The possibility that these different isoforms might be due to protease degradation cannot be ruled out at present even though it is unlikely due to the fact that four different protease inhibitors were used during extraction and purification. The other possibility could be due to polymorphism in the gene or alternate splicing in the mRNA though only one major form of Cry j I protein has been detected in cDNA cloning studies (see Example 4).

- IgE binding, direct ELISA (allergic patient IgE [1]): only specific IgE detected
- IgE binding, direct ELISA [2]: direct binding
- plasma IgE binding response (patients' plasma IgE; patient #1034): no detectable binding
- plasma IgE binding response (patients' plasma IgE; patient plasma samples, FIGS. 31-33): variable response
B1: purified native Cry j I: major allergen of Japanese cedar pollen, biochemically purified in the native form (protein)
chain: DNPIDSCWRGDSNWAQNRMKLADCAVGFGSSTMGGKGGDLYTVTNSDDDPVNPAPGTLRYGATRDRPLWIIFSGNMNIKLKMPMYIAGYKTFDGRGAQVYIGNGGPCVFIKRVSNVIIHGLYLYGCSTSVLGNVLINESFGVEPVHPQDGDALTLRTATNIWIDHNSFSNSSDGLVDVTLTSTGVTISNNLFFNHHKVMLLGHDDAYSDDKSMKVTVAFNQFGPNCGQRMPRARYGLVHVANNNYDPWTIYAIGGSSNPTILSEGNSFTAPNESYKKQVTIRIGCKTSSSCSNWVWQSTQDVFYNGAYFVSSGKYEGGNIYTKKEAFNVENGNATPQLTKNAGVLTCSLSKRC
- histamine release (human basophil): strong histamine release
- allergic patients with IgE that only reacted with this allergen (IgE antibodies): 29%
- IgE binding of purified isoforms (allergic patient IgE [3]): bind allergic patient IgE
